Reference: publication PMC4624681 (2015)

B1: T41 (CC’-FG) chimera: hTIM-4 Ig V with the CC’ and FG loops of hTIM-1 (domain or fragment)
chain: VTSETVVTEVLGHRVTLPCLYSSWSHNSNSMCWNRGSCSLFTCKEALIRTDGMRVTSRKSAKYRLQGTIPRGDVSLTILNPSESDSGVYCCRIEHRGWFNDVKINVRLNLQRASTT
B2: T41 (BC-CC’-FG) chimera: hTIM-4 Ig V with the BC, CC’ and FG loops of hTIM-1 (domain or fragment)
chain: VTSETVVTEVLGHRVTLPCLYSGAVTSMCWNRGSCSLFTCKEALIRTDGMRVTSRKSAKYRLQGTIPRGDVSLTILNPSESDSGVYCCRIEHRGWFNDVKINVRLNLQRASTT
B3: T41 (BC-CC’) chimera: hTIM-4 Ig V with the BC and CC’ loops of hTIM-1 (domain or fragment)
chain: VTSETVVTEVLGHRVTLPCLYSGAVTSMCWNRGSCSLFTCKEALIRTDGMRVTSRKSAKYRLQGTIPRGDVSLTILNPSESDSGVYCCRIEVPGWFNDVKINVRLNLQRASTT
B4: T14 (FG) chimera: hTIM-1 Ig V with the FG loop of hTIM-4 (domain or fragment)
chain: VKVGGEAGPSVTLPCHYSGAVTSMCWNRGSCSLFTCQNGIVWTNGTHVTYRKDTRYKLLGDLSRRDVSLTIENTAVSDSGVYCCRVEVPGWFNDMKITVSLEIVPPKV

Target: T1, Zaire GP (1–320) with a His tag (Ebolavirus, Zaire strain, UniProt Q05320 33-320)
T1 chain: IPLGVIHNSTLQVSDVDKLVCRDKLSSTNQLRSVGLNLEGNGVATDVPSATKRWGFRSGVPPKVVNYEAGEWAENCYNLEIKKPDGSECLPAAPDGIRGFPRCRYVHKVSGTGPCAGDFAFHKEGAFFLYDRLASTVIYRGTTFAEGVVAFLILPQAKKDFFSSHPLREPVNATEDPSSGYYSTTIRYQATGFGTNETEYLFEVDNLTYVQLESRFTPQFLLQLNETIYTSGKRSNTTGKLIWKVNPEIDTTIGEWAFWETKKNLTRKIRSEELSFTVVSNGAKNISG
Assay: SPR

Going from B1 to B2, the Kd falls from 208 µM to 72.4 µM (2.9-fold). The second binds more tightly here.

B3 and B4 are within 1.5-fold of each other in Kd: 73.2 µM for the first, 57.9 µM for the second.
